Measured values reported in paper PMC7078210.
Where a chain is given by its changes, count along the chain named. Values belong to the molecule of their own block, whether it stands above or below them.

Assays:
[1] = target: NtMOC1 (N108-S275, I112V/Q162K/E235Q/E239Q) (Nicotiana tabacum); test: crystal structure; MOC1 with 1 mM MgCl2 mixed with Holliday junction DNA (9-bp arms) at a molar ratio of 1:1.2, co-crystallised
[2] = target: NtMOC1 (N108-S275, I112V/Q162K/E235Q/E239Q) (Nicotiana tabacum); test: crystal structure; HJ-free (apo) MOC1, 10 mg/ml with 1 mM MgCl2, sitting-drop vapor diffusion at 18 °C
NtMOC1 D118A = target: T1, NtMOC1 D118A (Nicotiana tabacum, UniProt A0A1S4BMC2 108-275, D118A); test: EMSA; 5 mM EDTA; EMSA: 50 mM Tris-HCl pH 8.0, 1 mM DTT, 5 mM EDTA, 200 ng/ml heparin (so in the source), 10% glycerol, 25 C, 30 min; HJ 250 nM, protein 0-1000 nM; 6% native PAGE, no MgCl2; conditions: protein: recombinant; tags: 6xHis N-term, removed (DrICE); chain copies: 2; label: none (GelRed stain); four-way junction of 4 strands, 28 nt each, 2-bp homologous core
T1 sequence: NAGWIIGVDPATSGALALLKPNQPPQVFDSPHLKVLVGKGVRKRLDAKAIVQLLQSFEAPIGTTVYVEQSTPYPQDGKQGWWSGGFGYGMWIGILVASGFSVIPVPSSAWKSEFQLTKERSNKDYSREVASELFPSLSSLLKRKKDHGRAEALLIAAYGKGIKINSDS

NtMOC1 E258A = target: T2, NtMOC1 E258A (Nicotiana tabacum, UniProt A0A1S4BMC2 108-275, E258A); test: as above; conditions: protein: recombinant; tags: 6xHis N-term, removed (DrICE); chain copies: 2; label: none (GelRed stain); four-way junction of 4 strands, 28 nt each, 2-bp homologous core
T2 sequence: T1 sequence with A11D, E151A

NtMOC1 E175A = target: T3, NtMOC1 E175A (Nicotiana tabacum, UniProt A0A1S4BMC2 108-275, E175A); test: as above; conditions: protein: recombinant; tags: 6xHis N-term, removed (DrICE); chain copies: 2; label: none (GelRed stain); four-way junction of 4 strands, 28 nt each, 2-bp homologous core
T3 sequence: T1 sequence with A11D, E68A

NtMOC1 D253A = target: T4, NtMOC1 D253A (Nicotiana tabacum, UniProt A0A1S4BMC2 108-275, D253A); test: as above; conditions: protein: recombinant; tags: 6xHis N-term, removed (DrICE); chain copies: 2; label: none (GelRed stain); four-way junction of 4 strands, 28 nt each, 2-bp homologous core
T4 sequence: T1 sequence with A11D, D146A

NtMOC1 D116A = target: T5, NtMOC1 D116A (Nicotiana tabacum, UniProt A0A1S4BMC2 108-275, D116A); test: as above; conditions: protein: recombinant; tags: 6xHis N-term, removed (DrICE); chain copies: 2; label: none (GelRed stain); four-way junction of 4 strands, 28 nt each, 2-bp homologous core
T5 sequence: T1 sequence with D9A, A11D

NtMOC1 Y180A = target: T6, NtMOC1 Y180A (Nicotiana tabacum, UniProt A0A1S4BMC2 108-275, Y180A); test: EMSA; 5 mM EDTA; little effect; EMSA: 50 mM Tris-HCl pH 8.0, 1 mM DTT, 5 mM EDTA, 200 ng/ml heparin (so in the source), 10% glycerol, 25 C, 30 min; HJ 250 nM, protein 0-1000 nM; 6% native PAGE, no MgCl2; conditions: protein: recombinant; tags: 6xHis N-term, removed (DrICE); chain copies: 2; label: none (GelRed stain); four-way junction of 4 strands, 28 nt each, 2-bp homologous core
T6 sequence: T1 sequence with A11D, Y73A

stoichiometry N [1]: 2
stoichiometry N [2]: 2
Molecule: NtMOC1 (N108-S275, I112V/Q162K/E235Q/E239Q) (domain or fragment)

B1: X2 (CCGG) HJ (structured_DNA)
DNA 1: GGGCAAAGATGTCCCTCTGTTGTAATCG
DNA 2: CCAGTGCCTTGCTGGGACATCTTTGCCC
DNA 3: TAGACAGCTCCATCCAGCAAGGCACTGG
DNA 4: CGATTACAACAGAGGATGGAGCTGTCTA
binding result (NtMOC1 D118A): binds
binding result (NtMOC1 E258A): binds
binding result (NtMOC1 E175A): binds
binding result (NtMOC1 D253A): binds
binding result (NtMOC1 D116A): binds
binding result (NtMOC1 Y180A): binds
